Data: patent publication US20170037110A1 (IMMATICS BIOTECHNOLOGIES, published 2017)

B1: SLTEYLQNV (peptide)
peptide: SLTEYLQNV
B2: SLTETIEGV (peptide)
peptide: SLTETIEGV
B3: SLTIDGIYYV (peptide)
peptide: SLTIDGIYYV
B4: SLTIDGIRYV (peptide)
peptide: SLTIDGIRYV

What follows are binders tested against T1, HLA-A*02:01 (human) (assay: UV peptide exchange ELISA).
T1 construct: monomers captured on streptavidin plates; also called MHC class I
Text: Candidate peptides for T cell based therapies according to the present invention were further tested for their MHC binding capacity (affinity). The individual peptide-MHC complexes were produced by UV-ligand exchange, where a UV-sensitive peptide is cleaved upon UV-irradiation, and exchanged with the peptide of interest as analyzed. Only peptide candidates that can effectively bind and stabilize the peptide-receptive MHC molecules prevent dissociation of the MHC complexes. To determine the yield of the exchange reaction, an ELISA was performed based on the detection of the light chain (p2m) of stabilized MHC complexes.
96 well MAXISorp plates (NUNC) were coated over night with 2 μg/ml streptavidin in PBS at room temperature, washed 4× and blocked for 1 h at 37° C. in 2% BSA containing blocking buffer. […] Peptide-MHC monomers of the UV-exchange reaction were diluted 100 fold in blocking buffer. Samples were incubated for 1h at 37° C., washed four times, incubated with 2 μg/ml HRP conjugated anti-p2m for 1h at 37° C., washed again and detected with TMB solution that is stopped with […]. Absorption was measured at 450 nm.
For B1, the peptide exchange yield was ≥ 75%. Binder B2 has a peptide exchange yield of 20 to 50%. For B3, the peptide exchange yield was ≥ 75%. B4 was tested, and the peptide exchange yield was 50 to 75%.
